Data: US20050054571A1, “Antimicrobial proteins from the SPO1 bacteriophage” (Rice University, priority 2003, published 2005)

B1: Gene 44: product of SPO1 host-takeover gene 44, SEQ ID NO: 8 (protein)
chain: MAKSNNVYVVNGEEKVSTLAEVAKVLGVSRVSKKDVEEGKYDVVVEEAAVSLADTEEVVEEVVTEEEDILEGVEVVEDEEEEEAAEDVEEPTSEEDSEDEWEEGYPVATEVEEDEDEEIEYPEVGDFEDEKAIKKYIKGLTDEQLQAWCELEGAEWVENEHRNINRMRMAMAIKAVHFPELAKKPSSKKKSKYAEYTTEELVEMAIDNNVEVRDDKGNERILRMYTIIALREAGLIS
modifications: SPO1 Bacteriophage
B2: Gene 51: product of SPO1 host-takeover gene 51, SEQ ID NO: 15 (protein)
chain: MAKINKGYVANFIEENGFPEQGHFEEKKDLQAFYKHLSTEQLEEWVELEGLEVKDTDSDSIYRMRLCMAILYLNFPKKTAGKKKASPYKHISLEELVQMATDNDIEVKHTDSDKILRMRTIMALKEAGKLG
modifications: SPO1 Bacteriophage
B3: Gene 56: product of SPO1 host-takeover gene 56, SEQ ID NO: 20 (protein)
chain: MFKYTDRSVRQYIERQQRSAMLEQEQAEKDKKERRKAGLLFFGTIVVLVAVVAVYIVPQSLDAMWHENYEKPAQEAARN
modifications: SPO1 Bacteriophage

Columns and labels:
[1] = test system: bacterial DNA, RNA, and protein synthesis; details: uninfected cells of either B. subtilis or E. coli; Wei and Stewart, 1993, 1995; cited from earlier work
E. coli = assay: Effect of induced expression of cloned SPO1 genes on growth and viability of E. coli (liquid medium and colony formation); format: cell-based; details: cloned gene(s) expressed from IPTG-inducible promoter, * = lethality conclusion based on failure to clone, ** = data not conclusive
From the text: (§1) For analysis of antimicrobial activity we first cloned most of the 24 host-takeover genes (genes 37-60) singly or in multiple gene combinations into a B. subtilis/E. coli shuttle vector (pPW19) under control of an IPTG-inducible promoter (Wei and Stewart, 1993). […] These remaining genes are being cloned using expression vectors with more tightly regulated promoters, such as pJONEX4 (Sayers, 1996), pET101, or pX (Kim et al., 1996). The transformed E. coli and B. subtilis were used to determine the antimicrobial activity, if any, of the cloned genes. The effect of induction on bacterial growth and viability was measured both in liquid medium and by colony formation. Definitive establishment of lethality was shown by loss of the ability to form colonies even after removal from the inducing agent. Indication of probable lethality was based on total inability to form colonies under inducing conditions.

B. subtilis [2] = assay: Effect of induced expression of cloned SPO1 genes on growth and viability of B. subtilis (liquid medium and colony formation); format: cell-based; details: cloned gene(s) expressed from IPTG-inducible promoter, * = lethality conclusion based on failure to clone, ** = data not conclusive
From the text: as §1

[3] = test system: E. coli strain DH5(pPW27); assay: Killing of E. coli by IPTG-induced expression in liquid medium, viable cells counted by plating without inducer (FIG. 8); format: cell-based; details: within three hours after induction at time 0 (0.2 mM IPTG), plating in the absence of inducer
Method: FIG. 8. Expression of SPO1 GP44 in E. coli. Cells of E. coli strain DH5(pPW27), which expresses SPO1 gene 44 from an IPTG-inducible promoter, were transformed either with vector pACYC177 or with plasmid pPW40, in which the mutant ipoB gene had been cloned in pACYC177. Aliquots of the two cultures were induced by adding 0.2 mM IPTG at time 0, and were assayed for viable cells at various times thereafter, by plating on media lacking IPTG. Open symbols, no IPTG; Closed symbols, 0.2 mM IPTG added at time 0; Squares, mutant rpoB; and Circles, no mutant rpob. Viable cell count is expressed in cells/ml ×10^−6.
(§2) In cells growing in liquid medium, expression of the cloned gene 44 was induced at time 0. At subsequent times, the number of cells remaining viable was measured by plating in the absence of inducer. More than 99% of the cells were killed within three hours.

[4] = test system: bacterial DNA, RNA, and protein synthesis; assay: DNA, RNA and protein synthesis in uninfected bacteria expressing cloned SPO1 genes; format: cell-based, B. subtilis or E. coli; details: expression of cloned gene(s) in uninfected cells
Method: Pulse Labeling: Rates of synthesis of host and phage RNA or protein were measured in C4 medium as described previously (Wei and Stewart, 1993), by pulse-labeling for 5 minutes with [5-^3H]uridine, or [4,5-^3H]leucine, precipitating with TCA, and counting the precipitate. Since SPO1 DNA contains hmUra in place of thymine, host DNA synthesis could be measured independently by pulsing with [methyl-^3H]thymidine. Phage DNA synthesis was measured by pulsing with [2,8-^3H]adenine, and measuring alkali-stable, TCA-precipitable counts. Pulsing with [2,8-^3H]adenine measures host as well as phage DNA synthesis, but most host DNA synthesis has been shut off by the time that phage replication begins, even in mutant infections, so incorporation of label after 12 minutes is overwhelmingly into phage DNA. The time given for each pulse is the time at which the pulse began.
Adding gene 50 to the 51 clone increases its lethal efficiency, as does combining all 3 genes in a single clone. […] Mutants resistant to genes 51/50 have been isolated, but the mutant gene(s) have not yet been identified. […] The effects on DNA and protein synthesis are probably indirect effects of the inhibition of host RNA synthesis.
The simplest hypothesis as to how GP44/50/51 regulate gene expression is that they interact with the host's RNAP to change its transcriptional specificity. […]

bacteria = assay: Toxicity or lethality of expression of cloned SPO1 genes, bacterium not given; format: cell-based
From the text: as §1, §2

B. subtilis [5] = assay: Effect of gene expression on cell division of B. subtilis; format: cell-based; details: expression of the gene alone in B. subtilis
From the text: Genes 58-56: Expression of the whole operon is lethal to both species. […] Infection by SPO1 inhibits cell division, and a gene 56 mutation prevents that inhibition. B. subtilis mutants resistant to GP56 have been isolated, but the mutant gene(s) has not yet been identified.

Molecule	effect of expression on bacterial RNA synthesis and viability [1]	Lethality, E. coli (E. coli; listed as 44)	Lethality, B. subtilis (B. subtilis [2]; listed as 44)	cells killed [3]	effect of expression on bacterial DNA, RNA and protein synthesis [4]	Lethality, E. coli (E. coli; listed as 51)	Lethality, B. subtilis (B. subtilis [2]; listed as 51)	toxicity or lethality of expression (bacteria)	Lethality, E. coli (E. coli)	effect on cell division (B. subtilis [5])	Lethality, B. subtilis (B. subtilis [2]; listed as 56)
B1	caused the shutoff of bacterial RNA synthesis and cell death	Lethal	Lethal	More than 99%	inhibiting DNA, RNA, and protein synthesis	–	–	–	–	–	–
B2	–	–	–	–	inhibiting DNA, RNA, and protein synthesis	Lethal	Lethal	–	–	–	–
B3	–	–	–	–	–	–	–	lethal effect	Mildly toxic	specifically inhibiting cell division, without affecting DNA synthesis or chromosomal segregation	Lethal
